Test results from the supplement of paper PMC12764529.
± gives the half width of the 95% confidence interval.

Experiments:
[1] = folding stability dG unfold from chymotrypsin proteolysis; higher = more stable
Summary of the method: (§1)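 Bayesian fitting of sequencing counts gave K50 for each design. Unfolding free energy followed by setting this against a sequence-predicted unfolded-state K50 and a shared folded-state K50, either per protease or with trypsin and chymotrypsin combined. The designs, under 80 residues and lacking cysteine, were digested in a PA-tagged cDNA display format at 11 threefold-diluted protease concentrations and without protease, and only those with AlphaFold2 dimer inter-PAE above 15 were kept.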

[2] = folding stability dG unfold from trypsin proteolysis; higher = more stable
Summary of the method: as §1

[3] = folding stability dG unfold (combined trypsin and chymotrypsin); higher = more stable
Summary of the method: as §1

Sequence	folding stability dG unfold [1]	folding stability dG unfold [2]	folding stability dG unfold [3]
SAGGSAGGSAGGGVAFSSDTTETRIDTTDDDTIVITTTTYAPNPSSTTTTVTTVPPDVPLSAGGSAGGSAGG [r7_128_JUSTAS]	0.0059 ± 0.23 kcal/mol	1.24 ± 0.044 kcal/mol	0.75 ± 0.14 kcal/mol
SAGGSAGGDPNDKPMKFELIETFTIPGNLNEAKDFLEDLLPPNWAINVEQEPGMITITIYKMKDSAGGSAGG [r6_953_TrROS]	2.23 ± 0.073 kcal/mol	1.78 ± 0.17 kcal/mol	2.22 ± 0.2 kcal/mol
SPSTTIPQTITLDTKLPNGKPATPEEVKAIAEEIVKKLEKEKGVKISINVKVTPVDSSGKYKLDITITIIKS [r1_231_JUSTAS]	2.81 ± 0.072 kcal/mol	2.14 ± 0.047 kcal/mol	2.59 ± 0.11 kcal/mol
SMVIEIPDGTPLEEIIKKVKEAKEKGEPMEVVVTVPNDESVIQALKEAGFEVEVEKDEVKNVTLYKVKLPSA [r9_759_JUSTAS]	2.53 ± 0.025 kcal/mol	2.7 ± 0.15 kcal/mol	2.59 ± 0.076 kcal/mol
SAGGMLVRVTLPSGETVELPVTSLDAAARRLREELGLPAGARLRVEVYDPVTGEVTEYELVIPVPEPVSAGG [r13_145_TrMRF]	4.33 ± 0.062 kcal/mol	4.92 ± 0.18 kcal/mol	4.68 ± 0.1 kcal/mol
SAGFSITVDYEPEKGLWTVTFTSPPSTSPLSPEEVKETAREIAEKQGIKYELIEISREGNTWTMTIKVLSAG [r14_556_JUSTAS]	5.48 ± 0.082 kcal/mol	4.25 ± 0.18 kcal/mol	5.39 ± 0.13 kcal/mol
SAGGSAGGSAGGDNFEIEPDISWNPDYGYISIDWTVTIGGKEQPFTIMIPVRLPPPPEDDSAGGSAGGSAGG [r7_413_TrROS]	0.712 ± 0.15 kcal/mol	1.41 ± 0.099 kcal/mol	1.14 ± 0.22 kcal/mol
SSSGTDPLTVRVTVTLTDPSTGKETLLEYEVEVPPGTPVEVELPDVPPSASVTVEVYDPGGVRIGTRTLPSA [r9_478_JUSTAS]	1.78 ± 0.11 kcal/mol	1.81 ± 0.14 kcal/mol	1.95 ± 0.4 kcal/mol
SAGGSAKGKKTRTITIMAPFDNKEEAREQAEEIADNIMNNLPDDMKIKVEVSWNPEDNYVMATIRISAGGSA [r15_981_TrROS]	0.842 ± 0.11 kcal/mol	0.404 ± 0.3 kcal/mol	0.707 ± 0.25 kcal/mol
SAGGMNMKPIKKETFTLPDENGNEVKIEIYKLEDGSYIIKITYPSGKTETFIVPDEETAKNLKIEIKPSAGG [r13_109_TrMRF]	2.91 ± 0.046 kcal/mol	1.66 ± 0.12 kcal/mol	2.62 ± 0.18 kcal/mol
SAGGSAGGSAGMMKVRIRVDGKEIEIEVPPGMTVDEIAERLKKEFGKDIEIEVEEVKPEPSAGGSAGGSAGG [r11_805_TrROS_Hall]	3.17 ± 0.1 kcal/mol	3.72 ± 0.23 kcal/mol	3.39 ± 0.22 kcal/mol
SAGGSAGGSAGGGMSSAPPVTITPVSETTERLPNGTLVRTTTYAVDDGSTVTTTTVTPVSSAGGSAGGSAGG [r7_948_JUSTAS]	0.952 ± 0.069 kcal/mol	-0.127 ± 0.099 kcal/mol	0.602 ± 0.1 kcal/mol
SAGGGAAEEAARALIDEAKAALGLSEISEVVLTREGDGVTMTVRFPGKGLVITIDLAAGVVTAVEDVSAGGS [r16_171_JUSTAS]	2.018 ± 0.0088 kcal/mol	2.18 ± 0.034 kcal/mol	2.11 ± 0.035 kcal/mol
SMTLTLEDGKLTLTVTETRTTVERDAADPGKWTTRTETRTVTLTLPLEDLEALKKLLEALPPGARVELVPSA [r9_476_TrROS_Hall]	4.9 ± 0.26 kcal/mol	3.23 ± 0.09 kcal/mol	3.91 ± 0.29 kcal/mol
SAGGSAGGSAGGMLVRIPRGDKGFVLEIETDGVRTVEEFDGTEEEIREYAEKNGFEILESAGGSAGGSAGGS [r10_506_JUSTAS]	0.883 ± 0.051 kcal/mol	0.771 ± 0.017 kcal/mol	0.892 ± 0.071 kcal/mol
SAGMTLVAVNRETGEVNVIELDPEDPELVTVTYPNGEKETFPLAEIAERLGLPVSLLLNDYDIERIYGSSAG [r5_156_TrMRF]	1.38 ± 0.057 kcal/mol	1.95 ± 0.086 kcal/mol	1.71 ± 0.084 kcal/mol
SAGGGANIEGVEIYRIPDLDKYLVVVPSPAPEGAEITITVRLPNGPFTKTFVAKYRPLPGNRHVFVGSAGGS [r8_195_TrMRF]	0.789 ± 0.15 kcal/mol	1.23 ± 0.056 kcal/mol	1.03 ± 0.12 kcal/mol
